Test: yeast display, Sf9 membrane polyspecificity reagent, FACS + sequencing; frameworks hold sequencing errors
Summary of the method: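 A synthetic nanobody library was expressed on Saccharomyces cerevisiae BJ5465 by galactose induction for 36–48 hours. The library was stained for 1 hour at 4 °C with 10% biotinylated, detergent-solubilized Sf9 membrane reagent and enriched with streptavidin microbeads before FACS. Low and high (top ~1%) gates were set on anti-HA fluorescence for expression and streptavidin fluorescence for reagent binding, and each polyreactivity label reflects the gate of origin.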

Sequence	polyreactivity (PSR sort gate)
QVQLVESGGALVQAGGSLRLSCAASGSTFGRYAMGWYRQAPGKERELVATIRSGGSTTYADSVKGRFTISRDNAKNTVYLQMNSLKREDTAVYYCAAGTKPSYYYWGQGTQVTVSS	low polyreactivity
QVQLVESGGALVQAGGSLRLSCAASGSTFHRNAMGWYRQAPGKERELVAAITSGGSTNYADSVKGRFTISRDNAMNTVYLQLNSLKPEDTAVYSCAKDYRHYNRGWYDYWGQGTQVTVSS	low polyreactivity
QVQLVESGGALVQAGGSLRLSCAASGSTIGDNAMGWYRQAPGKERELVASISWSGASTYYADSVKGRFTISRDNAKNTFYLPMKSLKPEETEVYYCAVYYSYFSHLYHLLFYYWGQGTQVTVSS	low polyreactivity
QVQLVESGGALVQAGGSLRLSCAASGSTLRANAMGWYRQAPGKERELVARITSGGSTYYADSVKGRFTISRDNAKNTVYFQMNSLKPEDTAVYYCAATYKLAYRRGYWGQGTQVTVSS	high polyreactivity
QVQLVESGGALVQAGGSLRLSCDASGSTLWDYAMGWYRQAPRKERELVAASTQSTGDTHYADSVKGRFTLSRDNAKNTVYFQMNSLKPEDTAVYYCAADSYLSVYDPYGYWGQGTQVTVSS	low polyreactivity
QVQLVESGGALVQAGGSLRLTCAASGRTLYLYAMGWYRQAPGKEREFVAAINSSGDSTYYADSVKGRFTISRDNAKNTVYLQMNSLNPEDTAVYYCNVAWFRHEYDYWGQGTQVTVSS	low polyreactivity
QVQLVESGGALVQAGGSLRVSCAASGRIFRRNAMGWDRPAPGKERELVAGIDRSGGSTYYADSVKRRFTISRDNGKKTVYIQMNSLKPEDTAVYYCNTRAPYRVKSSGYWGLGTQVTVSS	high polyreactivity
QVQLVESGGALVQAGGSVRLSCAASGRTFGTYAMGWYRQAPGKERELVAAISTRGGRTFYADSVKGRFTISRDNAKNTVYLQMNSLKPEDTAVYYCAAYYKYYEYDYWGQVTQVTVSS	high polyreactivity
QVQLVESGGCIVQAGGSLRLSCAASGFTFRTNTKGWYRQAPGKDRELVAAISRSGGSTYYADSVKGRFTISRDNAKNTVYLQMNSLKPEDTAVYDCNAVGRSDSYYLAYNYWGQGTQVTVSS	high polyreactivity
QVQLVESGGCIVQAGGSLRLSCAASGRTFRAYAMGWYRQAPGKEREFVAAITKRGGGTYYADSVKGRFTISRDNAKNTVYLQMNILKPEDTAVYYCAAESGSWYSRMDYWGQGTQVTVSS	high polyreactivity
QVQLVESGGCIVQAGVSLRLSCSSSGRTFGYNAMGLYRNAPGKERELVAAINWSGASKYYADSVKGRFTISRDNAKNTVYLQMNSLKPEDTAVYYCAADYSYIYGFDYWGQGTQVTVSS	low polyreactivity
QVQLVESGGCLDQAGGSLRLSCAASGFTFYNYAMGWYRQEPGKETQLVAAITRNGGRTYYADSVKWRFTISRDNAKYTVYLQMNSLKPEDTAFYYCASKKYKTVRYDYWGQGTQGTVSS	high polyreactivity
QVQLVESGGCLVPAGGSLRLSCAASGHTFSSYAMGWYRQAPGKERELVAAISVSATRTYYADSVKGRFTISRDNAKNTVYLQMNSLKPEDTAVFYCAARPVQFTYGYWGQGTQVTVSS	high polyreactivity
QVQLVESGGCLVQAGCSHRLSCAASGSTFGHNAMGWYRQAPGKERELVAAISWSGGRTSYADSVKGRFTISRDHAKNTVYLQLNSLKPEDTAVYYCAARSWRKGDYWGQGTQVTVSS	high polyreactivity
QVQLVESGGCLVQAGCSLRLSCAASGRIFGYYVMGWYRQAPGKERELVAAIRSSADSTYYADSVKGRFTISRDNAKNTVYLQMNSLKPEDTAVYYCAAQSPAYYTKSYWGQGTQVTVSS	low polyreactivity
QVQLVESGGCLVQAGCSRRLSCAASVRIFARNTMGWSRQAPGKERELVAAISWGGGRTYYADSVKGRFTISRDNAKNTVYLQMNSLKPEDTAVYYCAAETLQIPRGEYWGQGTQVTVSS	low polyreactivity
QVQLVESGGCLVQAGGRLRLSCAASGIIFYLYAMAWYRQARGKVWELVATISRRGGSTYYADSVKGRFTISRDNAKNTVYLQMNSLKPDDTAVYYCATGHFSVGRSFSSGSYEYWGQGTQVTVSS	high polyreactivity
QVQLVESGGCLVQAGGRLRLSCAASGLTLYKNGMGWYRQAPGKERELVAVISRSGGRTYYADSVKGRFTISRDNAKNTVFLHMNSLKPEDTAVYYCAALQYGPRYTYYYWGQGTQVTVSS	high polyreactivity
QVQLVESGGCLVQAGGRLRLSCAASVRTFRSYAMGWYRQAPGKERELVAAISWSGGSTYYADSVKGRFTISRDNAKNTVYLQMTSLKPEDTAGYYCAAEVYYTYVYILDYWGQGTQVTVSS	high polyreactivity
QVQLVESGGCLVQAGGRLRLSSAASGRTIGWNAMGWYRQAPGTEREFVAAITISGGDTYYADSVKGRFTISRDNAKNNVYFQMNSLKPEDTAVYYCAATSTWRPSFEMDYWGQGTQVTGSS	low polyreactivity
QVQLVESGGCLVQAGGSLRFICAASGRIFDDNAMGWYRPAPGKERELVATISSTGGRTYYADSLKGRFTISRDNAKNNVYLQMNSLKPEDTAVYYCAARRRQGGYYYWGQGTQVTVSS	high polyreactivity
QVQLVESGGCLVQAGGSLRISCAASGRIFSRNAMGWYRQAPGKEREWVAAITRSSGTTYYADSVKGRFTISRDNAKNTVYLQMNSLKPEDTAVYYCAAGHTYGGYPRPSDYWGQGTQVTVSS	low polyreactivity
QVQLVESGGCLVQAGGSLRLICAASGSIFDINAMGWYSQAPGKERELVADIRRGDSTNYADSVKGRFTISRDNAKNTVYLQMNSLKPEDTAVYYCAARWRRSIYGFYPQRPYDYWGQGTQVTVSS	high polyreactivity
QVQLVESGGCLVQAGGSLRLRCAASGSSFAYNDMGWDRQAPGKDRELVATIRNGGSTYYADSVKGRFTISRDNAKNTVYLQRNSLKPEDTAVYYCAAVPLWDYKFCYYLLYDYWGQGTQVNVSS	low polyreactivity
QVQLVESGGCLVQAGGSLRLSCAASGCTFVSNAMGWSRQAPGKERELVAAINGSGGITYYADSVKGRFTISRDNAKNTVYFQMNSLKPEDTAVYYCAAEVLYWRGYYNYWGQGTQVTVSS	low polyreactivity
QVQLVESGGCLVQAGGSLRLSCAASGFIFAKYAMGWYRQAPGKEREFVAAISFSGASTYYADSVKGRFTISRDNAKNTVYLQMNSLKPEDTAVYYCAAYWDAEGRRYTRLEYWGQGTQVTVSS	low polyreactivity
QVQLVESGGCLVQAGGSLRLSCAASGFIFGYYAMGWYRPPPGKESELVAAISWSGVSTYYADSVKGRFTISRDNAKNTVYLQMNSLKPEDTAVYYCAVGYVLTGVFQARFDYWGQGTQATVSS	high polyreactivity
QVQLVESGGCLVQAGGSLRLSCAASGFTFPNAMGWYIQAPGKERELDATISSSGGSTYYADSVKGRFTISRDNAKNTVYLQMNSLKPEDTAVFYCAARTRQYLIYRAYRYDYWGQGTQVTVSS	low polyreactivity
QVQLVESGGCLVQAGGSLRLSCAASGFTFQKYAMGWYRQAPGKERELVAAISWSGSSTYYADSVKGRFTISRDNAKNTVYLQMNSLKPEDTAFYYCAADSYYIQERDYWGQGTQVTVSS	high polyreactivity
QVQLVESGGCLVQAGGSLRLSCAASGFTFRYYAMGWYRQAPGKERELVAGITSGSRTNYADSVKGRFTISRDNAKNTVYLQMNSLKPEDSAVYYCAARIYNYQSWYDYWGQGTQVTVSS	high polyreactivity

Reference: the nanobody polyreactivity screen of Harvey et al. (2022)
